Data taken from the DeepSol protein solubility set.

Experiment: soluble on expression in E. coli; label from the status in PepcDB or PDB records

Sequence | soluble on expression in E. coli
MPVVSNTELSMRRQEILEGARRCFAEHGYEGATVRRLEETVGKSRGAIFHHFSDKENLFLALAREDAARMAEVVAENGLVEVMRDMLAHPERHDWLATRLEITKMLRTDPSFRNRWIEHQRVLDDAVLERLQRNAHLGRMRDDVPIDVLHTYLETVLDGFISRLASGGDTDNLERVLDLVEESVRSSQPS | not soluble
MKTFKLVGLSVIDDDMHRQDIPFIDGLIINKEDGQNRWLVEAYLDDDYEPMFVSLQRRPEFQLQVTITHTSNDPANMLVTVRSITKMNGHISVLMEGLMIPRRTHLAEVVLAGLVKKGLQGEALLQEFRQQMHERIDAKAPQERKR | not soluble
MSLKSVIVPAPGKIEIREVETPVINAYQALVKTEMVALCNATDSKLIAGHFPGVDTYPLALGHENAGIVVAVGEKVRNFKVGDRAIGGLISDFGAQGINSGWGGFSEYVVVNDFEVLKEEGLATPEQGCWDSFEIQNSVPAHVQPEEAVISCTWREVLGAFKDFNLTPGKKVIVVGSGPVGLSFVKLGKLFGLGQIDIVDMLPAKLEVARRMGADNGYTPAEISTPEFIAAAGRSYDAVIDAVGLDVVVNSVLPLVKMGGDVCVYGVMTKNPTFDLSKAPYNFDLHMHQWPTRSEEKAAMTTLAQWIEEGTLSASDFITHRFKIEEIEEAFAAVKRGEVLKCVLTEGHHHHHH | not soluble
MSLKKVNVTYALLYDKTKEKILMVKNKGKNGSYYTLPGGAVKLGETLEEAVIREVKEETGLHITVNGICYISEAFFEERGHHAIFFNFLGEIIGGETNITRPKEIEEITWMELHIASPHLRIPEHLVNMLKKKETVPYFFNGTIVHQSSEGHHHHHH | not soluble
MLIKVKTLTGKEIEIDIEPTDTIDRIKERVEEKEGIPPVQQRLIYAGKQLADDKTAKDYNIEGGSVLHLVLALRGG | soluble
MSLRLRKDVLNYESRQKSDLLIPNSNSISIYNQIADKYSRKITREEIFSGIYFLRYFLLRNAKGDVLEVGSGPGTNFPFYKWKKINTLTLVEPAEKMREIADARAKKKVPPNVLYRQFADLRQLPPNQSYDTIIQTFCICSQEKAVEQLNNYRSLLRSDGRILLIEHGKGKYKFLNRILNAYAESHYESWGCVWNRDIEQLLEDSELTIDSCKRFNFGTTYVIEAHEGHHHHHH | not soluble
MGSDKIHHHHHHMFVQHDERSRPCCCSFISFKYLKTTTPQEEEMPKKPKPNNFHDELNFARFGVISMHSRIDREVTSWKSEFTINGRTFRIEAITPEGRPHGIDTDTLVAVETLFVASSCPEDNWVHTTAYEMRELMGLGNNGDSYHRLRQSLRRLYLTSVIVGRKTSVANASGRVTWDNVGVRFLEGIRYRDAEDANALSMLDGEATLSIRLGEQLAASIRNGVSQVLDGQLLHQLEQPPARALYRTLQAHRRQDDGTLLDQLRVPLAEWRLATGLTTERTDLVRRALEAAHDELLANRYLEAVSIEGRGKKAYASYTFAERGAADPALVVLLRHAGVTVSRATALAAQHPERVEEACGFWKAAGPARAARYVIPAAWLRTSSRIQANISFRKSSSNLAVNVSSGCRS | not soluble
MGSDKIHHHHHHMIIHEITEECFKKYGKVIDSIDLTELVSTMQTVEIPADVVYEPSISALEKLKCATELQQKTYGELPIQIGWCIGNNHKLNAVEYHRCSEVNIAATDAILILGRQQDISVENTYDTSLMEAFRIPSGTAVELYATTLHYAPCNASAGGFLVAVVLPKGTNEALEHPHTGGEDALLAAKNKWLIGHPEGGLPDGSYIGLTGENLEIK | not soluble
MKIAVVAANGKAGQLITKEAVERSLDVTAIVRSENKTVAHQVIQKDLFDLTKEDIAPFDVIVDAFGQMNKDKLNEHSQSLEHLSNLVSDSQKRLIIIGGAGSLYVDKAHTERLIDSPDMPEEVKPISMAQVKTFEEIKERDDVQWTFVCPAPDFQFDGEKTGAYKVSDDEVIGTHVSYADFAKAIVDEAMNPEHIQSRFAVFAKLEHHHHHH | soluble
MGSDKIHHHHHHMTVCVWCQRPLKTSLTLAQFWRWGPVTPPDICVPCQGRLSPISGQHCPQCGRQQTTCQLCQDCQRWDQPLVNRALYCYDAEMKAYMQQYKFQGDYALQRVLQRALATALTQLTYDILVPIPIAQSTWQSRGFNQVTGWLTGQAYYQVLQVIDQDKATPQSAKNRAQRFLLTPQPFTLAPQAKDLCHGQRVLLLDDVYTTGRTLRHAATQINLTGAKAVTSLTLAR | not soluble
MNKKYPKINYIGNKEKIASWICDQLPSDVDTVADVFSGGCSFAYEAKKRGYRVITNDILAINYQIALALIENNHETLNDDDVAMIFSGSPHAGFMSQRYSEKFYFHDECQQLDLYRKNIGKLNNQYKRALAFTLMRRAMIRKMPYSRFTIPWEKVKQLRDEEYSYAKYGRRRAYHNESFQSHFLQNLDDYNQAVFNNGWRHHAFNQDIFDLLPNIQADAVYLDPPYTGTMNNYFGFYGLLDSYITSSIPKPFANHFMDKKQAVELFKRVINHLKPFKYWLLSYNNASYPNRDELEEMLGKNGRNVQILETPHVYKVTGKEKKQSHKEILFLVENT | not soluble
MGSDKIHHHHHHMRKWLLGVTAALALTALAACGTESSSTSGEEDQDVTIGYFPNLDHAAAIVGKEKGFFAEELGEEKVEFTHFPNGNDFIEALSTGSIDIGYVGPGPAINYYLTGGDVVVLGSAANGATLIVARDGSGIDTLDDFDGKSFCTPGNGCTHNVQLEIMLKELGLESNRVGGTVEHQSRIAPSNMVAMFEQGQIDAAAAPEPWGTYLVEELGAHVVAEWNDVFLGEELASVVVVTTREFLENHPEQVEAFLRAHVKSVEFAQEDVDATLETVNDALFDLTQNRLPEDVLYKAWERMAVTTDTYPDALQAWADASYELKFMDEDPNLDGFVDTSLLDSILSE | not soluble
GPGSMQSNAPFDPEREALRNEAIKKTVERNVTQARLKKVNDDVKLQQRELDKVEDQVNALLSIGHYVGEVLKRVDEERFIVKSISGARHLVGYRKSIKPEKLKFGARVALEITTFTIVKVLPREVDPQVYSMQYMSSDKDVSFQDIGGLQPQMRQMREVIELPLTNPELFVRVGIAPPKGVLLYGPPGTGKTLLAKAIAANVDAAFLKIVASSIVDKYIGESARVIREMFAYAREHEPCIIFIDEVDAIGSKRIEGSSSDREIQRTLMELLNQMDGFDKLGKVKVIMATNRPDTLDAALMRPGRLDRKIEIPLPNEAGRLDVLRIHSAKITKKGDIDFESVVKLSEGFNGADLRNVCTEAGMFAIRAGRDYVENSDFNKAVRKVADMKRLEGTAHQYSDQ | not soluble
MAHHHHHHMLTTFNIIWKREQAENVNNEKQCKTVSESLGGNAESSESPSSSISEFDQLVNDVEDLLEEQQINETEKLYKISKCPNEKFNKKNKLSITDLSAQLWCEQQLELILTTGKKRETEAMRLGIERHEVLEKADHLIIDVEVNTREESLGYRLLNTIILLEQLYEYKKAREVWVFGVIRGYVLRGIIDELRIEYDHVSRREYLIISDTKTRKEKREPSFAQKKSSAIQVQTYCLLLQHLKSGKADFKKLFEIYECDPTFEFTAIDLIKYKNLENLCKVVNCLFVRLPKIKEEMEIVYEHQGVEFSRNHIPYFYHSTLFTINILLDYWDGKRSSDVVENSDKWKCKFCDFVRNCVRCPLDG | not soluble
SERRLGVRAWVKENRGSFQPPVCNKLMHQEQLKVMFIGGPNTRKDYHIEEGEEVFYQLEGDMVLRVLEQGKHRDVVIRQGEIFLLPARVPHSPQRFANTVGLVVERRRLETELDGLRYYVGDTMDVLFEKWFYCKDLGTQLAPIIQEFFSSEQYRTGKPIPDQLLKEPPFPLSTRSIMEPMSLDAWLDSHHRELQAGTPLSLFGDTYETQVIAYGQGSSEGLRQNVDVWLWQLEGSSVVTMGGRRLSLAPDDSLLVLAGTSYAWERTQGSVALSVTQDPACKKPLG | soluble
MAKLRVGIVFGGKSAEHEVSLQSAKNIVDAIDKTRFDVVLLGIDKAGQWHVNDAENYLQNADDPAHIALRPSAISLAQVPGKHQHQLINAQNGQPLPTVDVIFPIVHGTLGEDGSLQGMLRVANLPFVGSDVLSSAACMDKDVAKRLLRDAGLNIAPFITLTRTNRHAFSFAEVESRLGLPLFVKPANQGSSVGVSKVANEAQYQQAVALAFEFDHKVVVEQGIKGREIECAVLGNDNPQASTCGEIVLNSEFYAYDTKYIDDNGAQVVVPAQIPSEVNDKIRAIAIQAYQTLGCAGMARVDVFLTADNEVVINEINTLPGFTNISMYPKLWQASGLGYTDLISRLIELALERHTANNALKTTM | soluble
